Measurements: ChEMBL document CHEMBL5346942, “Identification and analysis of small molecule inhibitors of FosB from Staphylococcus aureus” (RSC Med Chem, 2023)
Calls of active or inactive are those of the source. No cut-off for these calls is given here.

Tests used:
CC(C)[C@H](O)P(=O)(O)O [1] = assay: (§1) Binding affinity to Staphylococcus aureus FosB using L-cysteine as substrate assessed as Km by DTNB assay based michaelis-menton analysis (reference value: 0.29 +/- 0.03 mM)
CC[C@@H](O)P(=O)(O)O [2] = assay: as §1
C[C@@H](C(=O)O)P(=O)(O)O [3] = assay: as §1
C[C@H](CO)P(=O)(O)O [4] = assay: as §1
O=C(O)CP(=O)(O)O [5] = assay: as §1
CC(C)[C@H](O)P(=O)(O)O [6] = assay: (§2) Binding affinity to Staphylococcus aureus FosB using L-cysteine as substrate assessed as catalytic constant by DTNB assay based michaelis-menton analysis (reference value: 2.95 /s)
CC[C@@H](O)P(=O)(O)O [7] = assay: as §2
C[C@@H](C(=O)O)P(=O)(O)O [8] = assay: as §2
C[C@H](CO)P(=O)(O)O [9] = assay: as §2
O=C(O)CP(=O)(O)O [10] = assay: as §2
CC(C)[C@H](O)P(=O)(O)O [11] = assay: (§3) Binding affinity to Staphylococcus aureus FosB using L-cysteine as substrate assessed as Kcat/Km by DTNB assay based michaelis-menton analysis (reference value: 10.33 /mM/s)
CC[C@@H](O)P(=O)(O)O [12] = assay: as §3
C[C@@H](C(=O)O)P(=O)(O)O [13] = assay: as §3
C[C@H](CO)P(=O)(O)O [14] = assay: as §3
O=C(O)CP(=O)(O)O [15] = assay: as §3
[16] = biological target: Metallothiol transferase FosB (Staphylococcus aureus) (UniProt Q5HDM4); assay: Inhibition of Staphylococcus aureus FosB using L-cysteine as substrate by absorbance based DTNB assay
Metallothiol transferase FosB (Staphylococcus aureus), sequence (Q5HDM4 whole entry): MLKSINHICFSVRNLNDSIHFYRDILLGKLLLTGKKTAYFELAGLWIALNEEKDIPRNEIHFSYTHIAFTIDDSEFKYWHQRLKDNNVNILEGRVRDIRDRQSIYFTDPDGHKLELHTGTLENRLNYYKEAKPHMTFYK

Metallothiol transferase FosB (Staphylococcus aureus), Q5HDM4, sequence (Q5HDM4 whole entry): as above

For “Metallothiol transferase FosB (Staphylococcus aureus), Q5HDM4”, the Km (CC(C)[C@H](O)P(=O)(O)O [1]) was 250 µM, the Km (CC[C@@H](O)P(=O)(O)O [2]) was 250 µM and the Km (C[C@@H](C(=O)O)P(=O)(O)O [3]) was 250 µM. It also gave a Km (C[C@H](CO)P(=O)(O)O [4]) of 270 µM, a Km (O=C(O)CP(=O)(O)O [5]) of 240 µM and a kcat (CC(C)[C@H](O)P(=O)(O)O [6]) of 2.84 s⁻¹. The kcat (CC[C@@H](O)P(=O)(O)O [7]) was 2.82 s⁻¹, the kcat (C[C@@H](C(=O)O)P(=O)(O)O [8]) was 2.84 s⁻¹ and the kcat (C[C@H](CO)P(=O)(O)O [9]) was 2.91 s⁻¹. For the same molecule, the kcat (O=C(O)CP(=O)(O)O [10]) was 2.83 s⁻¹, the kcat/Km (CC(C)[C@H](O)P(=O)(O)O [11]) was 11200 M⁻¹ s⁻¹ and the kcat/Km (CC[C@@H](O)P(=O)(O)O [12]) was 11400 M⁻¹ s⁻¹. For the same molecule, the kcat/Km (C[C@@H](C(=O)O)P(=O)(O)O [13]) was 11400 M⁻¹ s⁻¹, the kcat/Km (C[C@H](CO)P(=O)(O)O [14]) was 10600 M⁻¹ s⁻¹ and the kcat/Km (O=C(O)CP(=O)(O)O [15]) was 11800 M⁻¹ s⁻¹.
With `CC(C(=O)O)C(=O)O` the inhibition [16] was “inactive”.
For `O=P(O)(O)CCP(=O)(O)O`, the inhibition [16] was “inactive”.
In the case of `O=C(O)CCP(=O)(O)O`, the inhibition [16] was “inactive”.
